Results taken from patent US20090311248A1 (published 2009).

B1: 17H1 (antibody, V domains shown)
VH: QVQFVQSGAEVKKPGASVKVSCKASGYTFTRHAIHWVRQAPGQRLEWMGWINPGNGNAKYSQKFQGRVTITRDTPASTVYMELSSLRSEDMGVYYCARDGGYSHDYSYFYGLDVWGPGTTVIVSS
VL: QSVLTQPPSASGTPGQRVTISCSGSSSNIGGNFVDWYQQFPGTAPKLLIYTNDQRPSGVPARFSGSKSGTSASLAISGLRSEDEADYYCAAWDDIVNGWVFGGGTKLTVRG
notes: also called 17H1D9; IGH 520
B2: 48G5 (antibody, V domains shown)
VH: QVQLVQSGAEVKRPGASVKVSCKASGYTFTSYAIHWVRQAPGQRLEWMGWINPGNGNAKYSQRFQGRVIISRDTSATTSYMELSSLTSEDTAVYSCARDRGFDLLTGHYLGLDPWGQGTLVTVSS
VL: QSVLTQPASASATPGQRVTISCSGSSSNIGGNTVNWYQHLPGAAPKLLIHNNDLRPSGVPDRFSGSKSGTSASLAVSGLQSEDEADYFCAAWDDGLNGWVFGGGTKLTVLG
notes: also called 48G5C4; IGH 526

Assays:
[1] = target: HCV E1 envelope glycoprotein of genotype 3a (strain S52) on retroviral pseudoparticles (Hepatitis C virus genotype 3a); assay: cell-based or functional assay
[2] = target: HCV E1 envelope glycoprotein of genotype 5a (strain SA13) on retroviral pseudoparticles (Hepatitis C virus genotype 5a, UniProt O91936 1-3014); assay: cell-based or functional assay
[3] = target: HCV E1 envelope glycoprotein of genotype 2a (pJ6CF) on retroviral pseudoparticles (Hepatitis C virus genotype 2a, UniProt P26660 1-3033); assay: cell-based or functional assay
[4] = target: HCV E1 envelope glycoprotein of genotype 1b (HCCl 66) on retroviral pseudoparticles (Hepatitis C virus genotype 1b); assay: cell-based or functional assay
[5] = target: HCV E1 envelope glycoprotein of genotype 1a strain H77 on retroviral pseudoparticles (HCVpp) (Hepatitis C virus genotype 1a strain H77, UniProt P27958 1-3011); assay: cell-based or functional assay
[6] = target: HCV E1 envelope glycoprotein of genotype 4a (strain ED43) on retroviral pseudoparticles (Hepatitis C virus genotype 4a, UniProt O39929 1-3008); assay: cell-based or functional assay
[7] = target: HCV E1 envelope glycoprotein of genotype 6a (strain HK-6a) on retroviral pseudoparticles (Hepatitis C virus genotype 6a); assay: cell-based or functional assay
IGP 2254 = IGP 2254 (Hepatitis C virus (HCV), N-terminal Biotin; C-terminal -CONH2); assay: BIAcore, antibody immobilized, peptide IGP 2254 in solution
IGP 2241 = target: T1, IGP 2241 (Hepatitis C virus (HCV)); assay: ELISA, […], antibody at 1.25 µg/mL
T1 construct: E1 peptide

IGP 2138 = target: T2, IGP 2138 (Hepatitis C virus (HCV)); assay: ELISA, […], antibody at 1.25 µg/mL
T2 construct: also called WDMMMNW

IGP 2137 = target: T3, IGP 2137 (Hepatitis C virus (HCV)); assay: ELISA, […], antibody at 1.25 µg/mL
T3 construct: also called RMAWDM

HCV E1 envelope glycoprotein of genotype 4a (strain ED43) on retroviral pseudoparticles, sequence (O39929 whole entry): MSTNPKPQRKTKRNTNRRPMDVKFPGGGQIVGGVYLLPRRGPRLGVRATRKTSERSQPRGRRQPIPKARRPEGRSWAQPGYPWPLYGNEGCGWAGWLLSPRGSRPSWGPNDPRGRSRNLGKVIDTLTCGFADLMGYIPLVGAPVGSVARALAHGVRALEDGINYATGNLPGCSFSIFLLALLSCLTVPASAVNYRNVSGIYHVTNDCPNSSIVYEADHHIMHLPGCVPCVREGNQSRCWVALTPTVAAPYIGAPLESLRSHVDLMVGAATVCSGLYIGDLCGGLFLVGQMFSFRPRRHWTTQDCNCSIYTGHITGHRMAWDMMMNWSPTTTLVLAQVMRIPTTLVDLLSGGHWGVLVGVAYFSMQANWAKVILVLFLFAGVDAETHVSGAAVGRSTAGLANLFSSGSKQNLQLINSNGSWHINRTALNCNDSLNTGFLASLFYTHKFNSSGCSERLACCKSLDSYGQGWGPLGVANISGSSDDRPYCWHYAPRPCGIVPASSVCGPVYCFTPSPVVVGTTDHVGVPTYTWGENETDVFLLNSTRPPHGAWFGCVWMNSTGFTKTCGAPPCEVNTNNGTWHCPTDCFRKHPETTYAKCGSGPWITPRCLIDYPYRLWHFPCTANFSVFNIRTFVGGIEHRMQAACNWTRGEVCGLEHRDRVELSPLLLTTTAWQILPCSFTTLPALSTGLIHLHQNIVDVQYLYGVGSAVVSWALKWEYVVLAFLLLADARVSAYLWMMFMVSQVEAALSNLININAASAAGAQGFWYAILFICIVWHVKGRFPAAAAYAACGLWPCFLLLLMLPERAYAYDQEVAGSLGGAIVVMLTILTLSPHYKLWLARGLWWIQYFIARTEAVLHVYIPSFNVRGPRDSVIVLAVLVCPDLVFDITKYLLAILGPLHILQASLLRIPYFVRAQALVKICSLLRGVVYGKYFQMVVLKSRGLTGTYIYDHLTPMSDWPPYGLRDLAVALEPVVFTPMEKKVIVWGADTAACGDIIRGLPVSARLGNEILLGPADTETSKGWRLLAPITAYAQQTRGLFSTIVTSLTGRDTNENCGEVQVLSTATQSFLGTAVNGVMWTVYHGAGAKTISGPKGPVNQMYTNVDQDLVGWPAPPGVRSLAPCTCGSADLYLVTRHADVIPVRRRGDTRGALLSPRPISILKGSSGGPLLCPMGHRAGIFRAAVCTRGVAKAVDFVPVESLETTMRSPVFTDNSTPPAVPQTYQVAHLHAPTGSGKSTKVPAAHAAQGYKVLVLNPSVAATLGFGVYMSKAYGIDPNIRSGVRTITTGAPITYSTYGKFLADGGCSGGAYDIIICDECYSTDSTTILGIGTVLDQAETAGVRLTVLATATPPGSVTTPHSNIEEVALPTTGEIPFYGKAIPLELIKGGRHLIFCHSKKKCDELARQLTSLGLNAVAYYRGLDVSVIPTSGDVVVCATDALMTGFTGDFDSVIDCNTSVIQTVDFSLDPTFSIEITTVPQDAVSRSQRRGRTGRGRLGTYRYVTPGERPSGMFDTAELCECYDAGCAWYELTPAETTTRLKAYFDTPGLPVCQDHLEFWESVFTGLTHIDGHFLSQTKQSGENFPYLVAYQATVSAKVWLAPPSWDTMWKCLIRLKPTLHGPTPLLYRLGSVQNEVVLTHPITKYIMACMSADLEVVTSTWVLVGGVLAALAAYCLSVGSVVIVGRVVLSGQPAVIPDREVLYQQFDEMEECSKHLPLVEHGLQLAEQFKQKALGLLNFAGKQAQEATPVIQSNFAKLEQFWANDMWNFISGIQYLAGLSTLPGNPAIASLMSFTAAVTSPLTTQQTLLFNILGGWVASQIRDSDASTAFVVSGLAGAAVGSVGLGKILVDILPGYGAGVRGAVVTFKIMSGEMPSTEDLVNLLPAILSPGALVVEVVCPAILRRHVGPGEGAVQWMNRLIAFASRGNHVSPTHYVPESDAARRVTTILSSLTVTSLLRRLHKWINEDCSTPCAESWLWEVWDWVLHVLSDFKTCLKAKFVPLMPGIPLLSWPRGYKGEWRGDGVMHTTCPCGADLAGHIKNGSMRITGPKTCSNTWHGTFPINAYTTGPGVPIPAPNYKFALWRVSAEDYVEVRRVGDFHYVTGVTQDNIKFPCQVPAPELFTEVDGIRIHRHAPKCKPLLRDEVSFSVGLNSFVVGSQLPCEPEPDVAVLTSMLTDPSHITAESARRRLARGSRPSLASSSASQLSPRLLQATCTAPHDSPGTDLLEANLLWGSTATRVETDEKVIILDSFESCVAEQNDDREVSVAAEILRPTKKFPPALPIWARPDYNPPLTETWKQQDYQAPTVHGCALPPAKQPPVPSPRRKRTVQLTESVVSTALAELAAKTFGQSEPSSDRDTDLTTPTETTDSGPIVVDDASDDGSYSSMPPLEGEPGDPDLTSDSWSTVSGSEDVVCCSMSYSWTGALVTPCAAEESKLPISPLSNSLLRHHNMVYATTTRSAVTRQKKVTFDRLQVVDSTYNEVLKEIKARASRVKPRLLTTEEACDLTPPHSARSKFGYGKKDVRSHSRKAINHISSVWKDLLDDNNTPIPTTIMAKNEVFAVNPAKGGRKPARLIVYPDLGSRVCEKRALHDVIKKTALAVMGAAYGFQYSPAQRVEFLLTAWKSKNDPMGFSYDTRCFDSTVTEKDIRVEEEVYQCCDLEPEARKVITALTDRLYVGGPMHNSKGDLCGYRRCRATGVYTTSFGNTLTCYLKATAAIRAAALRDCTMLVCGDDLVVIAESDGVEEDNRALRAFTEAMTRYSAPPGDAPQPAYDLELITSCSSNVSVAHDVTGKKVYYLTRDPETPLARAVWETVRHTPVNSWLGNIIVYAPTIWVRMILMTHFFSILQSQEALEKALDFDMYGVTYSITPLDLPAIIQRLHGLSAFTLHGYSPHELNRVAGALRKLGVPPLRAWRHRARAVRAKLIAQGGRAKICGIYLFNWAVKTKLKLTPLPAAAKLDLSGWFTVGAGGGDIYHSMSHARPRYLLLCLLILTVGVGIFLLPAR

Row | Binder | lowest concentration of antibody in µg/ml exhibiting at least 50% neutralization (HCVpp) [1] | lowest concentration of antibody in µg/ml exhibiting at least 50% neutralization (HCVpp) [2] | lowest concentration of antibody in µg/ml exhibiting at least 50% neutralization (HCVpp) [3] | lowest concentration of antibody in µg/ml exhibiting at least 50% neutralization (HCVpp) [4] | lowest concentration of antibody in µg/ml exhibiting at least 50% neutralization (HCVpp) [5] | lowest concentration of antibody in µg/ml exhibiting at least 50% neutralization (HCVpp) [6] | lowest concentration of antibody in µg/ml exhibiting at least 50% neutralization (HCVpp) [7] | Kd (IGP 2254) | koff (IGP 2254) | kon (IGP 2254) | binding result (IGP 2241) | binding result (IGP 2138) | binding result (IGP 2137)
1 | B1 | < 50 µg/mL | < 1 µg/mL | 50 µg/mL | 6.2 µg/mL | 3.1 µg/mL | < 1 µg/mL | 6.2 µg/mL | 0.15 nM | 0.000357 s⁻¹ | 2.35e+06 M⁻¹ s⁻¹ | – | – | –
2 | B2 | > 50 µg/mL | 1.6 µg/mL | 50 µg/mL | 12.5 µg/mL | < 1 µg/mL | 6.2 µg/mL | 3.1 µg/mL | 0.2 nM | 0.000305 s⁻¹ | 1.54e+06 M⁻¹ s⁻¹ | no binding (tested: 1.25 µg/ml) | no binding (tested: 1.25 µg/ml) | no binding (tested: 1.25 µg/ml)
